Data reported in patent publication EP0528847B1.

Columns and labels:
[1] = target: full-length human γ-interferon receptor, on cells (human) (UniProt P15260); experiment: ¹²⁵I-IFN-γ binding to COS7 cells transfected with plasmid T886-6, Expt. 3'
[2] = target: full-length human γ-interferon receptor, on cells (human) (UniProt P15260); experiment: ¹²⁵I-IFN-γ binding to COS7 cells transfected with plasmid T886-6, Expt. 3
[3] = target: full-length human γ-interferon receptor, on cells (human) (UniProt P15260); experiment: ¹²⁵I-IFN-γ binding to COS7 cells transfected with plasmid T886-5, Expt. 2'
[4] = target: full-length human γ-interferon receptor, on cells (human) (UniProt P15260); experiment: ¹²⁵I-IFN-γ binding to COS7 cells transfected with plasmid T884-5, Expt. 1
[5] = target: full-length human γ-interferon receptor, on cells (human) (UniProt P15260); experiment: ¹²⁵I-IFN-γ binding to COS7 cells transfected with plasmid T884-5, Expt. 1'
[6] = target: full-length human γ-interferon receptor, on cells (human) (UniProt P15260); experiment: ¹²⁵I-IFN-γ binding to COS7 cells transfected with plasmid T886-5, Expt. 2

Chain of UniProt P15260 (P15260 18-489): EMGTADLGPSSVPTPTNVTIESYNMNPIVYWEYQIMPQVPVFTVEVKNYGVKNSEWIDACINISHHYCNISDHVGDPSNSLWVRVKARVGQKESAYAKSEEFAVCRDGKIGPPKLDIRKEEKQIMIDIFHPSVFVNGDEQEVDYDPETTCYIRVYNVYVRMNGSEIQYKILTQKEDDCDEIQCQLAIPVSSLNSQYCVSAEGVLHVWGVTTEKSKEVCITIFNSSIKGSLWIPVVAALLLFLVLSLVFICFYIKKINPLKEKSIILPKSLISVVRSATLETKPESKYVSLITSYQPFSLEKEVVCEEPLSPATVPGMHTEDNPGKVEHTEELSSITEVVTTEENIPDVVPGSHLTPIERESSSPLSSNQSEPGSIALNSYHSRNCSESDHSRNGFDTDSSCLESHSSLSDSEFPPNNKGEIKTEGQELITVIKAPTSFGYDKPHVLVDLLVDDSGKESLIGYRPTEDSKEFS

Background Binding (1), ¹²⁵I IFN-γ cpm bound at 0.1 µg/ml unlabeled IFN-γ [1]: 2090 cpm
Background Binding (2), ¹²⁵I IFN-γ cpm bound at 10 µg/ml unlabeled IFN-γ [1]: 69.8 cpm
Specific Binding (3) = (1) - (2) [1]: 2020 cpm
Background Binding (1), ¹²⁵I IFN-γ cpm bound at 0.1 µg/ml unlabeled IFN-γ [2]: 2530 cpm
Background Binding (2), ¹²⁵I IFN-γ cpm bound at 10 µg/ml unlabeled IFN-γ [2]: 231 cpm
Specific Binding (3) = (1) - (2) [2]: 2300 cpm
Background Binding (1), ¹²⁵I IFN-γ cpm bound at 0.1 µg/ml unlabeled IFN-γ [3]: 2400 cpm
Background Binding (2), ¹²⁵I IFN-γ cpm bound at 10 µg/ml unlabeled IFN-γ [3]: 198 cpm
Specific Binding (3) = (1) - (2) [3]: 2210 cpm
Background Binding (1), ¹²⁵I IFN-γ cpm bound at 0.1 µg/ml unlabeled IFN-γ [4]: 1830 cpm
Background Binding (2), ¹²⁵I IFN-γ cpm bound at 10 µg/ml unlabeled IFN-γ [4]: 130 cpm
Specific Binding (3) = (1) - (2) [4]: 1700 cpm
Background Binding (1), ¹²⁵I IFN-γ cpm bound at 0.1 µg/ml unlabeled IFN-γ [5]: 1560 cpm
Background Binding (2), ¹²⁵I IFN-γ cpm bound at 10 µg/ml unlabeled IFN-γ [5]: 77.8 cpm
Specific Binding (3) = (1) - (2) [5]: 1480 cpm
Background Binding (1), ¹²⁵I IFN-γ cpm bound at 0.1 µg/ml unlabeled IFN-γ [6]: 1980 cpm
Background Binding (2), ¹²⁵I IFN-γ cpm bound at 10 µg/ml unlabeled IFN-γ [6]: 150 cpm
Specific Binding (3) = (1) - (2) [6]: 1830 cpm
Substance: human γ-interferon (amino acids 4-137 of the mature protein), produced in E. coli 294 from plasmid pGIF4-137 (from UniProt P01579 4-137) (ligand)
